Experiments:
[1] = test system: HLA-A2 HHD-DR1 humanized mice; experiment: ELISPOT-IFNγ on splenocytes of vaccinated HLA-A2 HHD-DR1 transgenic mice; format: in vivo, mouse; details: prime d0 and boost d14, splenocytes d21, listed as CD22-B2
HLA-A*0201 = molecular target: T1, HLA-A*0201 (Homo sapiens, UniProt P04439, D140Y/D185E/D98H/E176V/E277Q/G131W/G231S/I119V/I121R/I166T/I218V/L300P/L318F/N151K/N90K/P208A/P217A/Q86G/Q94H/R138H/R169H/T345S); experiment: Affinity of the peptide to T2 cell line (HLA-A*0201 expression, FACS, relative to HIV pol 589-597); format: binding; details: for mean relative fluorescence intensity of T2 cells: normalized to HIV peptide = 100
T1 construct: human tumoral cell T2 which expresses the HLA-A*0201 molecule; endogenous in cells; host or cells: T2 cells (human, TAP1/2 negative)
Source text: The experimental protocol is similar to the one that was validated for peptides presented by the HLA-A*0201 (Tourdot et al., A general strategy to enhance immunogenicity of low-affinity HLA-A2.1-associated peptides: implication in the identification of cryptic tumor epitopes. Eur J Immunol. 2000 December; 30(12):3411-21). Affinity measurement of the peptides is achieved with the human tumoral cell T2 which expresses the HLA-A*0201 molecule, but which is TAP ½ negative and incapable of presenting endogenous peptides.
(§1) T2 cells (5.104 cells per well) are incubated with decreasing concentrations of peptides from 100 μM to 0.1 μM (4 points: 100 μM, 10 μM, 1 μM, 0.1 μM) in serum-free medium (TexMacs) supplemented with […] of β2 Microglobulin at 37° C. for 16 hours. Cells are then washed two times and marked with the anti-HLA-A2 antibody coupled to PE (clone BB7.2, BD Pharmagen).
The analysis is achieved by FACS (Macsquant analyzer 10-Miltenyi).
For each peptide concentration, the geometric mean of the labelling associated with the peptide of interest is subtracted from background noise and reported as a percentage of the geometric mean of the […] labelling obtained for the reference peptide HIV pol 589-597 at a concentration of 100 μM. […] A2. Solubilisation of Peptides
as §1, with “32” for “β2”
For each peptide concentration, the geometric mean of the labelling associated with the peptide of interest is subtracted from background noise and reported as a percentage of the geometric mean of the […] labelling obtained for the reference peptide HIV pol 589-597 at a concentration of 100 μM.

Sequence: YIFEHPELL (YIFEHPETA) [CD22-B1]
- immunogenicity (T cell response in ELISPOT-IFNγ after vaccination) [1]: strongly immunogenic
- Concentration of peptide that induces 20% of HLA-A2 expression (HLA-A*0201; T2 cells, peptide 100-0.1 μM, 16 h, 37° C., anti-HLA-A2 FACS): 0.16 µM
- In vitro binding affinity* (relative affinity) (HLA-A*0201; normalized against HIV-pol concentration of peptide inducing 20% of HLA-A2 expression in the same experiment): 0.4
- mean relative fluorescence intensity of T2 cells (HLA-A*0201; peptide 0.1 (μM)): 0
- mean relative fluorescence intensity of T2 cells (HLA-A*0201; peptide 1 (μM)): 81
- mean relative fluorescence intensity of T2 cells (HLA-A*0201; peptide 10 (μM)): 123
- mean relative fluorescence intensity of T2 cells (HLA-A*0201; peptide 100 (μM)): 164

Source: patent publication US11759508B2, “Antigenic peptides for treatment of B-cell malignancy” (ENTEROME S.A., priority 2019, dated 2023)
